Reference: the supplement of paper PMC10724198
± gives the standard deviation of the averaged measurements.

Columns and labels:
[1] = tested on: Saccharomyces cerevisiae; assay: protein stability index of tFT-peptide fusion in wild type (PSI (0-1 scale)); higher = more stable (slower turnover); settings: genetic background: wild type
Procedure: (§1)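 MPS profiling in S. cerevisiae of two library types built from selected 12-aa C-degron peptides (IN1, IN2, LN1, LN3, VN2, R1-R5, W1-W3, Atg1 and Rpa12 C-termini): saturation mutagenesis libraries and C-terminal +1 capping libraries (13 aa). Each peptide is fused to the C-terminus of a sfGFP-mCherry timer, after a GGGS linker. Cells are FACS-sorted into 8 mCherry/sfGFP bins and sequenced. PSI runs from 0 (unstable) to 1 (stable), measured once in wild type and in the das1Δ or doa10Δ background.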

[2] = tested on: Saccharomyces cerevisiae; assay: protein stability index of tFT-peptide fusion in deletion strain of DAS1 (PSI (0-1 scale)); higher = more stable (slower turnover)
Procedure: as §1

[3] = tested on: Saccharomyces cerevisiae; assay: protein stability index of tFT-peptide fusion (C-terminal peptide) (PSI (0-1 scale)); higher = more stable (slower turnover); settings: temperature: 30 C
Procedure: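 MPS profiling in S. cerevisiae of the yeast C-terminome library: the last 12 aa of each annotated ORF are fused to the C-terminus of a sfGFP-mCherry timer, after a GGGS linker. Cells are FACS-sorted into 8 mCherry/sfGFP bins and deep-sequenced. PSI runs from 0 (unstable) to 1 (stable); wild type and das1Δ backgrounds, two technical replicates each.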

[4] = genetic background: das1 deletion
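For protein stability index of tFT-peptide fusion in deletion strain of DAS1 in this document: PSI is a weighted mean of each variant's read distribution over the sorted stability bins, computed only for variants having over 10 reads in total.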
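For protein stability index of tFT-peptide fusion in wild type in this document: PSI derived as read-weighted mean over the 8 sorting bins, only variants exceeding 10 total reads kept, mCherry placed adjacent to the peptide and sfGFP distal.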

CTSCNYKFRTNN
protein stability index [1]: 0.407 | protein stability index [2]: 0.681

CTSCTYKFRTNN
protein stability index [1]: 0.238 | protein stability index [2]: 0.648

CTSVGYKFRTNN
protein stability index [1]: 0.176 | protein stability index [2]: 0.682

CTVCGYKFRTNN
protein stability index [1]: 0.28 | protein stability index [2]: 0.704

CVSCGYKFRTNN
protein stability index [1]: 0.243 | protein stability index [2]: 0.705

CWSCGYKFRTNN
protein stability index [1]: 0.167 | protein stability index [2]: 0.714

DSLAASFWRVVG
protein stability index [1]: 0.135 | protein stability index [2]: 0.697

ELIQPLPVQFLN
protein stability index [1]: 0.0675 | protein stability index [2]: 0.612

EVVYLSCVACIN
protein stability index [1]: 0.0159 | protein stability index [2]: 0.0291

FCMRWTFRYWVN
protein stability index [1]: 0.0388 | protein stability index [2]: 0.481

FDKRNHLIKLLN
protein stability index [1]: 0.131 | protein stability index [2]: 0.589

FHMRWTFRYWVN
protein stability index [1]: 0.0327 | protein stability index [2]: 0.466

FLIQPLPVQFLN
protein stability index [1]: 0.0527 | protein stability index [2]: 0.582

FSIRWTFRYWVN
protein stability index [1]: 0.0207 | protein stability index [2]: 0.335

FSMRDTFRYWVN
protein stability index [1]: 0.0684 | protein stability index [2]: 0.833

FSMRVTFRYWVN
protein stability index [1]: 0.0315 | protein stability index [2]: 0.352

WYEDEDSGDDDM [DML1 C-terminal 12 aa]
protein stability index [3, 4]: 0.698 ± 0.012 | protein stability index ([3]; genetic background: wild type): 0.674 ± 0.014

YAPDVVRSLENL [RRP42 C-terminal 12 aa]
protein stability index [3, 4]: 0.7271 ± 0.0014 | protein stability index ([3]; genetic background: wild type): 0.695 ± 0.043

YAVKDKIETLLI [SNU13 C-terminal 12 aa]
protein stability index [3, 4]: 0.7019 ± 0.0055 | protein stability index ([3]; genetic background: wild type): 0.725 ± 0.12

YAYMLYYERVNK [UBP16 C-terminal 12 aa]
protein stability index [3, 4]: 0.675 ± 0.02 | protein stability index ([3]; genetic background: wild type): 0.675 ± 0.041

YDANSWKQIKSC [PCL5 C-terminal 12 aa]
protein stability index [3, 4]: 0.7002 ± 0.0065 | protein stability index ([3]; genetic background: wild type): 0.203 ± 0.016

YDRDAKNDRSTT [YHL017W C-terminal 12 aa]
protein stability index [3, 4]: 0.705 ± 0.023 | protein stability index ([3]; genetic background: wild type): 0.665 ± 0.061

YEEFALRSGSSS [AFG2 C-terminal 12 aa]
protein stability index [3, 4]: 0.715 ± 0.022 | protein stability index ([3]; genetic background: wild type): 0.676 ± 0.014

YEGPTLTEFEDA [CYB2 C-terminal 12 aa]
protein stability index [3, 4]: 0.6905 ± 0.0043 | protein stability index ([3]; genetic background: wild type): 0.703 ± 0.015

YFFSSDRAIFNA [YGL041C-B C-terminal 12 aa]
protein stability index [3, 4]: 0.731 ± 0.022 | protein stability index ([3]; genetic background: wild type): 0.7029 ± 0.0011

YFNKTEFLLADN [MRPL17 C-terminal 12 aa]
protein stability index [3, 4]: 0.713 ± 0.018 | protein stability index ([3]; genetic background: wild type): 0.677 ± 0.025

YIFQTYVSVDSK [YAR047C C-terminal 12 aa]
protein stability index [3, 4]: 0.62 ± 0.036 | protein stability index ([3]; genetic background: wild type): 0.58 ± 0.015

YILQKQIIEDVE [SFH5 C-terminal 12 aa]
protein stability index [3, 4]: 0.693 ± 0.0056 | protein stability index ([3]; genetic background: wild type): 0.65 ± 0.043

YINDISRTWNAN [MNT3 C-terminal 12 aa]
protein stability index [3, 4]: 0.68 ± 0.0086 | protein stability index ([3]; genetic background: wild type): 0.679 ± 0.043

YIWKYYADSLFE [CSM2 C-terminal 12 aa]
protein stability index [3, 4]: 0.736 ± 0.013 | protein stability index ([3]; genetic background: wild type): 0.685 ± 0.043

YKDVQDAIRDSL [URA6 C-terminal 12 aa]
protein stability index [3, 4]: 0.708 ± 0.012 | protein stability index ([3]; genetic background: wild type): 0.6855 ± 0.0037

YKELVKNIESKL [CIT2 C-terminal 12 aa]
protein stability index [3, 4]: 0.752 ± 0.024 | protein stability index ([3]; genetic background: wild type): 0.837 ± 0.015

YKERDLIDRSAY [VTS1 C-terminal 12 aa]
protein stability index [3, 4]: 0.681 ± 0.014 | protein stability index ([3]; genetic background: wild type): 0.706 ± 0.032

YKKAATLISNIL [DNM1 C-terminal 12 aa]
protein stability index [3, 4]: 0.71 ± 0.017 | protein stability index ([3]; genetic background: wild type): 0.72 ± 0.074

YKQREYYTGVAW [ERG28 C-terminal 12 aa]
protein stability index [3, 4]: 0.70264 ± 0.0005 | protein stability index ([3]; genetic background: wild type): 0.694 ± 0.02

YLAFRLREFNKL [RSC1 C-terminal 12 aa]
protein stability index [3, 4]: 0.787 ± 0.05 | protein stability index ([3]; genetic background: wild type): 0.726 ± 0.049

YLKEYEFSQKDF [PFS1 C-terminal 12 aa]
protein stability index [3, 4]: 0.725 ± 0.01 | protein stability index ([3]; genetic background: wild type): 0.734 ± 0.025

YLRFKENPEEKW [AIM29 C-terminal 12 aa]
protein stability index [3, 4]: 0.711 ± 0.011 | protein stability index ([3]; genetic background: wild type): 0.753 ± 0.086

YNSGTEGTRFQI [TAR1 C-terminal 12 aa]
protein stability index [3, 4]: 0.707 ± 0.018 | protein stability index ([3]; genetic background: wild type): 0.6849 ± 0.0015

YQVSIAKVPRLT [BUD5 C-terminal 12 aa]
protein stability index [3, 4]: 0.711 ± 0.0095 | protein stability index ([3]; genetic background: wild type): 0.4878 ± 0.0037

YRCEKISQVLVI [CTF13 C-terminal 12 aa]
protein stability index [3, 4]: 0.461 ± 0.036 | protein stability index ([3]; genetic background: wild type): 0.495 ± 0.047

YRNIPESKPQGS [YIR021W-A C-terminal 12 aa]
protein stability index [3, 4]: 0.6812 ± 0.0038 | protein stability index ([3]; genetic background: wild type): 0.6624 ± 0.0038

YRVARKPSQPVM [MTO1 C-terminal 12 aa]
protein stability index [3, 4]: 0.685 ± 0.012 | protein stability index ([3]; genetic background: wild type): 0.683 ± 0.027

YVASHESQKADE [RRP5 C-terminal 12 aa]
protein stability index [3, 4]: 0.6883 ± 0.0054 | protein stability index ([3]; genetic background: wild type): 0.741 ± 0.072

YVKNLLTRFFTR [FRT1 C-terminal 12 aa]
protein stability index [3, 4]: 0.7184 ± 0.0033 | protein stability index ([3]; genetic background: wild type): 0.732 ± 0.03

YVVTSDEHPKTL [SIR2 C-terminal 12 aa]
protein stability index [3, 4]: 0.724 ± 0.0073 | protein stability index ([3]; genetic background: wild type): 0.6955 ± 0.0043

YWILKSNPTNES [YNL092W C-terminal 12 aa]
protein stability index [3, 4]: 0.742 ± 0.018 | protein stability index ([3]; genetic background: wild type): 0.7246 ± 0.0071

YWRKQYPEVDLP [UIP3 C-terminal 12 aa]
protein stability index [3, 4]: 0.728 ± 0.018 | protein stability index ([3]; genetic background: wild type): 0.744 ± 0.017

YYYYNKYKEFYP [TMH11 C-terminal 12 aa]
protein stability index [3, 4]: 0.736 ± 0.039 | protein stability index ([3]; genetic background: wild type): 0.704 ± 0.029
